# Reference: patent US10864269B2, “Therapeutic combinations comprising anti-CD73 antibodies and uses thereof” (MedImmune Limited, priority 2014, dated 2020)
# How the values were obtained:
# [1] = molecular target: T1, CD73 on the cell surface of MDA-MB-231 cells (Homo sapiens, UniProt P21589); assay: Antibody-mediated internalization or shedding of CD73 by flow cytometry; format: cell-based; settings: for Percentage of CD73 remaining on the cell surface: 100 nM antibody, 37° C.
# T1 construct: native CD73 expressed on human, murine, and cynomolgus monkey cell lines; endogenous in cells; host or cells: MDA-MB-231
# T1 sequence (P21589 27-549): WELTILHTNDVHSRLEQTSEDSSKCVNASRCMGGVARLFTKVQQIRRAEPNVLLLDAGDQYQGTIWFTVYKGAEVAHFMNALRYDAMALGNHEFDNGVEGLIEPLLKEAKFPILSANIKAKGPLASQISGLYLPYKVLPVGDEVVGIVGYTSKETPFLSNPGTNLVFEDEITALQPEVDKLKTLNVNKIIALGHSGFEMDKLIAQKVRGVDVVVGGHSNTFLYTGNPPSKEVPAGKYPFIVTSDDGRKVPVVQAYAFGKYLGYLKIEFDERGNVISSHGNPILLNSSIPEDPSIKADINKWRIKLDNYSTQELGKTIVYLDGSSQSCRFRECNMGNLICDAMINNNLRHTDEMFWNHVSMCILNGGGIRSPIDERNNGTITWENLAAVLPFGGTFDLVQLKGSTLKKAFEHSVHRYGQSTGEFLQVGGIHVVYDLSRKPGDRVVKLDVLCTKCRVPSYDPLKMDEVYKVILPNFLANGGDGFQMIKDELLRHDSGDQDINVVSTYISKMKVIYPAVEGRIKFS
# Protocol: Antibody-mediated internalization or shedding of CD73 was assessed by flow cytometry. MDA-MB-231 cells were incubated in presence of 100 nM MEDI9447 or negative control antibody R347 in growth medium at 37° C. for 0-4 hours. Cells were washed and resuspended in ice-cold PBS. The presence of CD73 on the cell surface was detected by adding 10 nM DyLight488-labeled detection antibody. Cells were incubated for 15 minutes, washed and analyzed by flow cytometry. The detection antibody binds to an epitope of CD73 that is different from the MEDI9447 epitope and both antibodies simultaneously bind to CD73 without interference.
# [2] = molecular target: cynomolgus CD73; assay: Solution binding, cynomolgus CD73; settings: as measured by solution binding
# [3] = tested on: CT26 murine syngeneic tumors; assay: CT26 syngeneic tumor model, MEDI9447 monotherapy; format: in vivo, Balb/C mice
# Protocol: CT26 cells, which are derived from a murine colon cancer, were established by subcutaneous (SC) injection of 5×10^5 cells suspended in 0.1 mL of PBS into the right flanks of 4-to-6-week-old female mice. The mice were treated with MEDI9447 or with a control antibody.
# 10 mice per group were used in this study. Animals were randomly assigned into groups. Animals in Group 1 were untreated and Group 2 was administered an isotype control. MEDI9447 was administered to Group 3. Test articles were administered intraperitoneally twice weekly starting on Day 3. On Day 16, 5 animals from each group were necropsied and tumors were isolated.
# Tumors were measured on Days 1, 7, 9, 12, 14, and 16 by caliper, and the volumes of tumors were calculated as follows: […] (1) The anticancer effects of MEDI9447 were expressed as percent tumor growth inhibition, which was calculated as follows: (Average tumor volume for MEDI9447/Average tumor volume for R347-TM)×100 (2)
# Tumors were isolated for flow cytometry. Tumors were dissected from CT26 tumor-bearing mice on study Day 16. Tumors were cut into small pieces and were digested with collagenase. […] Dissociated cells were pelleted at 1000 rpm for 5 minutes at 4° C. and were re-suspended in fluorescence-activated cell sorting (FACS) buffer. Cells were counted on Vi-Cell using the default setting. […]
# [4] = molecular target: T2, native CD73, 4T1 cells (Mus musculus, UniProt Q61503); assay: Flow cytometry binding to native CD73, 4T1 cells; settings: as measured by flow cytometry; read-out: KD, CD73 on the surface of murine 3T1 cells
# T2 construct: native CD73 expressed on human, murine, and cynomolgus monkey cell lines; endogenous in cells; host or cells: 4T1
# T2 sequence (Q61503 29-551): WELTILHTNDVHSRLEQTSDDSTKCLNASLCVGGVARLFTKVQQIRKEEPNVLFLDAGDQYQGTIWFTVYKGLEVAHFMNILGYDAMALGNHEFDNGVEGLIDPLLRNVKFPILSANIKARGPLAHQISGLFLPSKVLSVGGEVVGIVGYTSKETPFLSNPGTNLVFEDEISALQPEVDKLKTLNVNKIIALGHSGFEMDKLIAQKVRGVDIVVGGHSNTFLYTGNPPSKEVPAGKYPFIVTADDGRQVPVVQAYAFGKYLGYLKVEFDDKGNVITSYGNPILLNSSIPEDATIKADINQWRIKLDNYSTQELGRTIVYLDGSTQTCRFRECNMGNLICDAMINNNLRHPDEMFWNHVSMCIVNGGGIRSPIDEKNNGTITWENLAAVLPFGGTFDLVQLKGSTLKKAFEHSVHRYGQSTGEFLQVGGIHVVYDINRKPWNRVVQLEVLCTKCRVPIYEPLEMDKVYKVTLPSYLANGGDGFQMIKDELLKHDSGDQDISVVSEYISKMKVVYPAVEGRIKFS
# Protocol: Binding of MEDI9447 to native CD73 expressed on human, murine, and cynomolgus monkey cell lines was characterized by flow cytometry. The cells were incubated with various concentrations of MEDI9447 and antibody binding was monitored with and fluorophore-labeled anti-human Fc antibody. A plot of the median fluorescence intensity as a function of the MEDI9447 concentration was fitted nonlinearly using a one-site binding isotherm model to calculate the equilibrium dissociation constant.
# The affinity of enhanced anti-CD73 antibodies (in IgG1-TM format) to human, murine, and cynomolgus CD73 was determined by flow cytometry and surface plasmon resonsance (SPR) (Table 13). The enhanced antibodies had pM affinity to cellular and recombinant CD73 from the three species.
# All flow cytometry experiments were run at 4C and reagents were prepared in PBS/1% FBS buffer. 10,000 cells were incubated with test antibody in 50 uL volume for 4 hours. Cells were washed twice and incubated in 50 uL goat anti-human IgGFc-AlexaFluor647 conjugate for 15 minutes. Cells were washed, resuspended in buffer supplemented with Dapi, and analyzed on a flow cytometer. […] For the determination of KD values, a plot of the median fluorescence intensity as a function of test antibody concentration was fitted nonlinearly using a one site binding isotherm model.
substance,measurement,setting,value
MEDI9447: IgG1 with CD730010-derived VL of SEQ ID NO: 68 and VH of SEQ ID NO: 82,Percentage of CD73 remaining on the cell surface,[1]; 0 h,100%
same,Percentage of CD73 remaining on the cell surface,[1]; 0.25 h,90%
same,Percentage of CD73 remaining on the cell surface,[1]; 0.5 h,90%
same,Percentage of CD73 remaining on the cell surface,[1]; 1 h,87%
same,Percentage of CD73 remaining on the cell surface,[1]; 2 h,80%
same,Percentage of CD73 remaining on the cell surface,[1]; 4 h,73%
same,CD73 either internalized or shed upon antibody binding,[1]; 4 hours incubation,27%
same,Kd,[2],~0.09 nM
same,tumor growth,"[3]; CT26, Balb/C mice, 10 mg/kg IP 2X weekly",inhibited tumor growth
same,proportion of tumor-infiltrating MDSCs,"[3]; CT26 tumors harvested study Day 16, flow cytometry",reduced
same,Kd,[4],~0.11 nM
